Reference: patent publication US20240368267A1 (KODIAK SCIENCES, published 2024)

How the values were obtained:
[1] = target: T1, recombinant human IL-6 (human, UniProt P05231 30-212); experiment: Biacore, Fab lysate over IL-6 chip, 25 C
T1 construct: bought protein; also called interleukin-6
Protocol: Fab libraries were constructed containing random single point mutations for all 71 CDR positions, excluding substitutions for Cys, Met and Asn due to the chemical liabilities associated with these amino acids. Small-scale expression in 96 well plates format was utilized for screening the Fab libraries. E. coli colonies (TG1 cells, Zymo Research) containing randomized single point mutations were picked into 96 well plates (1.5 mL) and grown overnight at 30° C. in LB Amp+2% glucose. A separate 96 well plate was created on the following day by removing 100 μL of culture and adding 100 μL of 30% glycerol, then stored at −80° C. The remaining culture was spun down for 20 min and later resuspended in 1.5 mL of LB Amp containing 1 mM IPTG for induction of protein expression at 30° C. After 5 hours, cells were spun down, resuspended in 500 μL of HBS-EP+ buffer and lysed by one freeze/thaw cycle. Lysates were centrifuged for 30 minutes and vacuum filtered (200 μL) into round bottom 96 well plates for Biacore analysis.
Three ranges of antigen density (100-150 RU, 300-400 RU, 400-600 RU) were obtained by using variable flow times for each chip channel, later blocked with ethanolamine. Supernatants of the 96-well filtered culture lysates were injected at […] for 120 seconds. Fitting of dissociation curves (300 seconds) to single exponential decay curve was used for the determination of dissociation rates (koff). Chip surfaces were regenerated with 10 mM Glycine pH 1.7 solution injected at 50 μL/min during 60 seconds after every cycle of sample binding and dissociation.

[2] = target: T1, recombinant human IL-6; experiment: Biacore, antibody captured on Protein A, IL-6 as analyte
Protocol: Antibodies were captured on a Protein A chip (GE) by injecting 1:20 cell supernatant dilutions at 10 μL/min for 60 seconds. […] The sensor chip was regenerated by a 60 seconds injection of 10 mM Glycine pH 1.7 at the flow rate of […]. […] For this setup, 1 μg/mL of purified antibody was injected over a Protein A chip at 10 μL/min for 25 seconds. […] The sensor chip was regenerated by a 60 seconds injection of 10 mM Glycine pH 1.7 at flow rate of 50 μL/min. Data analysis for supernatant and purified samples were performed using BIAevaluation software (GE). All sensorgrams were double reference subtracted and fit using a 1:1 Langmuir binding model.

T1 sequence (P05231 30-212 limits assumed): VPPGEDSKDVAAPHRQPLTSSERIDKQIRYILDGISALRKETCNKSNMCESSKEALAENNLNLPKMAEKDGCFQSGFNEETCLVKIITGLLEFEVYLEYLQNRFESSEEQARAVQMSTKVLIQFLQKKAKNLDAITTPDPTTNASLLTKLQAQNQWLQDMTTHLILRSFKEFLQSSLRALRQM

B1: anti-IL-6 Fab, heavy chain A105K (Fab, V domains shown)
VH: EVQLVESGGGLVQPGGSLRLSCAASGFTFSPFAMSWVRQAPGKGLEWVAKISPGGSWTYYSDTVTGRFTFSLDTSKSTAYLQMNSLRAEDTAVYYCARQLWGYYKLDIWGQGTLVTVSS
VL: DIQLTQSPSSLSASVGDRVTITCSASISVSYMYWYQQKPGKAPKLLIYDMSNLASGVPSRFSGSGSGTDFTLTISSLQPEDFATYYCMQWSGYPYTFGQGTKVEIK
notes: built as m22 plus the named change
A koff [1] of 0.00401 s⁻¹ was found for B1 in this work.

B2: anti-IL-6 antibody, heavy chain variant II (M34W/G66D/I108V), light chain variant V (M32L/M50D/M88Q) (antibody, human IgG1, V domains shown)
VH: EVQLVESGGGLVQPGGSLRLSCAASGFTFSPFAWSWVRQAPGKGLEWVAKISPGGSWTYYSDTVTDRFTFSLDTSKSTAYLQMNSLRAEDTAVYYCARQLWGYYALDVWGQGTLVTVSS
VL: DIQLTQSPSSLSASVGDRVTITCSASISVSYLYWYQQKPGKAPKLLIYDDSNLASGVPSRFSGSGSGTDFTLTISSLQPEDFATYYCQQWSGYPYTFGQGTKVEIK
notes: engineered human IgG1; also called II/V
B2: binds [2].

B3: anti-IL-6 Fab, light chain V29L (Fab, V domains shown)
VH: EVQLVESGGGLVQPGGSLRLSCAASGFTFSPFAMSWVRQAPGKGLEWVAKISPGGSWTYYSDTVTGRFTFSLDTSKSTAYLQMNSLRAEDTAVYYCARQLWGYYALDIWGQGTLVTVSS
VL: DIQLTQSPSSLSASVGDRVTITCSASISLSYMYWYQQKPGKAPKLLIYDMSNLASGVPSRFSGSGSGTDFTLTISSLQPEDFATYYCMQWSGYPYTFGQGTKVEIK
notes: as for B1
A koff [1] of 0.00943 s⁻¹ was found for B3 in this work.

B4: anti-IL-6 antibody, heavy chain variant I (M34I/G66D/I108V), light chain variant V (M32L/M50D/M88Q) (antibody, human IgG1, V domains shown)
VH: EVQLVESGGGLVQPGGSLRLSCAASGFTFSPFAISWVRQAPGKGLEWVAKISPGGSWTYYSDTVTDRFTFSLDTSKSTAYLQMNSLRAEDTAVYYCARQLWGYYALDVWGQGTLVTVSS
VL: DIQLTQSPSSLSASVGDRVTITCSASISVSYLYWYQQKPGKAPKLLIYDDSNLASGVPSRFSGSGSGTDFTLTISSLQPEDFATYYCQQWSGYPYTFGQGTKVEIK
notes: engineered human IgG1; also called I/V
B4: binds [2].

B5: anti-IL-6 antibody, heavy chain variant II (M34W/G66D/I108V), light chain variant IV (M32L/M50A/N52S/M88Q) (antibody, human IgG1, V domains shown)
VH: EVQLVESGGGLVQPGGSLRLSCAASGFTFSPFAWSWVRQAPGKGLEWVAKISPGGSWTYYSDTVTDRFTFSLDTSKSTAYLQMNSLRAEDTAVYYCARQLWGYYALDVWGQGTLVTVSS
VL: DIQLTQSPSSLSASVGDRVTITCSASISVSYLYWYQQKPGKAPKLLIYDASSLASGVPSRFSGSGSGTDFTLTISSLQPEDFATYYCQQWSGYPYTFGQGTKVEIK
notes: engineered human IgG1; also called II/IV
B5: binds [2].

B6: anti-IL-6 antibody, heavy chain variant I (M34I/G66D/I108V), light chain variant III (M32L/M50D/N52S/M88Q) (antibody, human IgG1, V domains shown)
VH: EVQLVESGGGLVQPGGSLRLSCAASGFTFSPFAISWVRQAPGKGLEWVAKISPGGSWTYYSDTVTDRFTFSLDTSKSTAYLQMNSLRAEDTAVYYCARQLWGYYALDVWGQGTLVTVSS
VL: DIQLTQSPSSLSASVGDRVTITCSASISVSYLYWYQQKPGKAPKLLIYDDSSLASGVPSRFSGSGSGTDFTLTISSLQPEDFATYYCQQWSGYPYTFGQGTKVEIK
notes: engineered human IgG1; also called I/III
B6: binds [2].

B7: anti-IL-6 Fab, heavy chain S30V (Fab, V domains shown)
VH: EVQLVESGGGLVQPGGSLRLSCAASGFTFVPFAMSWVRQAPGKGLEWVAKISPGGSWTYYSDTVTGRFTFSLDTSKSTAYLQMNSLRAEDTAVYYCARQLWGYYALDIWGQGTLVTVSS
VL: DIQLTQSPSSLSASVGDRVTITCSASISVSYMYWYQQKPGKAPKLLIYDMSNLASGVPSRFSGSGSGTDFTLTISSLQPEDFATYYCMQWSGYPYTFGQGTKVEIK
notes: as for B1
A koff [1] of 0.00352 s⁻¹ was found for B7 in this work.

B8: anti-IL-6 Fab, light chain A54Y (Fab, V domains shown)
VH: EVQLVESGGGLVQPGGSLRLSCAASGFTFSPFAMSWVRQAPGKGLEWVAKISPGGSWTYYSDTVTGRFTFSLDTSKSTAYLQMNSLRAEDTAVYYCARQLWGYYALDIWGQGTLVTVSS
VL: DIQLTQSPSSLSASVGDRVTITCSASISVSYMYWYQQKPGKAPKLLIYDMSNLYSGVPSRFSGSGSGTDFTLTISSLQPEDFATYYCMQWSGYPYTFGQGTKVEIK
notes: as for B1
A koff [1] of 0.00529 s⁻¹ was found for B8 in this work.

B9: anti-IL-6 Fab, heavy chain L100Q (Fab, V domains shown)
VH: EVQLVESGGGLVQPGGSLRLSCAASGFTFSPFAMSWVRQAPGKGLEWVAKISPGGSWTYYSDTVTGRFTFSLDTSKSTAYLQMNSLRAEDTAVYYCARQQWGYYALDIWGQGTLVTVSS
VL: DIQLTQSPSSLSASVGDRVTITCSASISVSYMYWYQQKPGKAPKLLIYDMSNLASGVPSRFSGSGSGTDFTLTISSLQPEDFATYYCMQWSGYPYTFGQGTKVEIK
notes: as for B1
A koff [1] of 0.00245 s⁻¹ was found for B9 in this work.

B10: anti-IL-6 Fab, heavy chain S30W (Fab, V domains shown)
VH: EVQLVESGGGLVQPGGSLRLSCAASGFTFWPFAMSWVRQAPGKGLEWVAKISPGGSWTYYSDTVTGRFTFSLDTSKSTAYLQMNSLRAEDTAVYYCARQLWGYYALDIWGQGTLVTVSS
VL: DIQLTQSPSSLSASVGDRVTITCSASISVSYMYWYQQKPGKAPKLLIYDMSNLASGVPSRFSGSGSGTDFTLTISSLQPEDFATYYCMQWSGYPYTFGQGTKVEIK
notes: as for B1
A koff [1] of 0.00869 s⁻¹ was found for B10 in this work.

B11: anti-IL-6 Fab, heavy chain S30G (Fab, V domains shown)
VH: EVQLVESGGGLVQPGGSLRLSCAASGFTFGPFAMSWVRQAPGKGLEWVAKISPGGSWTYYSDTVTGRFTFSLDTSKSTAYLQMNSLRAEDTAVYYCARQLWGYYALDIWGQGTLVTVSS
VL: DIQLTQSPSSLSASVGDRVTITCSASISVSYMYWYQQKPGKAPKLLIYDMSNLASGVPSRFSGSGSGTDFTLTISSLQPEDFATYYCMQWSGYPYTFGQGTKVEIK
notes: as for B1
A koff [1] of 0.00977 s⁻¹ was found for B11 in this work.

B12: anti-IL-6 Fab, light chain S55T (Fab, V domains shown)
VH: EVQLVESGGGLVQPGGSLRLSCAASGFTFSPFAMSWVRQAPGKGLEWVAKISPGGSWTYYSDTVTGRFTFSLDTSKSTAYLQMNSLRAEDTAVYYCARQLWGYYALDIWGQGTLVTVSS
VL: DIQLTQSPSSLSASVGDRVTITCSASISVSYMYWYQQKPGKAPKLLIYDMSNLATGVPSRFSGSGSGTDFTLTISSLQPEDFATYYCMQWSGYPYTFGQGTKVEIK
notes: as for B1
A koff [1] of 0.0052 s⁻¹ was found for B12 in this work.

B13: anti-IL-6 Fab, heavy chain Q99A (Fab, V domains shown)
VH: EVQLVESGGGLVQPGGSLRLSCAASGFTFSPFAMSWVRQAPGKGLEWVAKISPGGSWTYYSDTVTGRFTFSLDTSKSTAYLQMNSLRAEDTAVYYCARALWGYYALDIWGQGTLVTVSS
VL: DIQLTQSPSSLSASVGDRVTITCSASISVSYMYWYQQKPGKAPKLLIYDMSNLASGVPSRFSGSGSGTDFTLTISSLQPEDFATYYCMQWSGYPYTFGQGTKVEIK
notes: as for B1
A koff [1] of 0.00385 s⁻¹ was found for B13 in this work.

B14: anti-IL-6 antibody, heavy chain variant II (M34W/G66D/I108V), light chain variant III (M32L/M50D/N52S/M88Q) (antibody, human IgG1, V domains shown)
VH: EVQLVESGGGLVQPGGSLRLSCAASGFTFSPFAWSWVRQAPGKGLEWVAKISPGGSWTYYSDTVTDRFTFSLDTSKSTAYLQMNSLRAEDTAVYYCARQLWGYYALDVWGQGTLVTVSS
VL: DIQLTQSPSSLSASVGDRVTITCSASISVSYLYWYQQKPGKAPKLLIYDDSSLASGVPSRFSGSGSGTDFTLTISSLQPEDFATYYCQQWSGYPYTFGQGTKVEIK
notes: engineered human IgG1; also called II/III
B14: binds [2].

B15: anti-IL-6 antibody, heavy chain variant I (M34I/G66D/I108V), light chain variant IV (M32L/M50A/N52S/M88Q) (antibody, human IgG1, V domains shown)
VH: EVQLVESGGGLVQPGGSLRLSCAASGFTFSPFAISWVRQAPGKGLEWVAKISPGGSWTYYSDTVTDRFTFSLDTSKSTAYLQMNSLRAEDTAVYYCARQLWGYYALDVWGQGTLVTVSS
VL: DIQLTQSPSSLSASVGDRVTITCSASISVSYLYWYQQKPGKAPKLLIYDASSLASGVPSRFSGSGSGTDFTLTISSLQPEDFATYYCQQWSGYPYTFGQGTKVEIK
notes: engineered human IgG1; also called I/IV
B15: binds [2].

B16: anti-IL-6 Fab, light chain S55I (Fab, V domains shown)
VH: EVQLVESGGGLVQPGGSLRLSCAASGFTFSPFAMSWVRQAPGKGLEWVAKISPGGSWTYYSDTVTGRFTFSLDTSKSTAYLQMNSLRAEDTAVYYCARQLWGYYALDIWGQGTLVTVSS
VL: DIQLTQSPSSLSASVGDRVTITCSASISVSYMYWYQQKPGKAPKLLIYDMSNLAIGVPSRFSGSGSGTDFTLTISSLQPEDFATYYCMQWSGYPYTFGQGTKVEIK
notes: as for B1
A koff [1] of 0.005 s⁻¹ was found for B16 in this work.

B17: anti-IL-6 Fab, heavy chain A105Q (Fab, V domains shown)
VH: EVQLVESGGGLVQPGGSLRLSCAASGFTFSPFAMSWVRQAPGKGLEWVAKISPGGSWTYYSDTVTGRFTFSLDTSKSTAYLQMNSLRAEDTAVYYCARQLWGYYQLDIWGQGTLVTVSS
VL: DIQLTQSPSSLSASVGDRVTITCSASISVSYMYWYQQKPGKAPKLLIYDMSNLASGVPSRFSGSGSGTDFTLTISSLQPEDFATYYCMQWSGYPYTFGQGTKVEIK
notes: as for B1
A koff [1] of 0.00378 s⁻¹ was found for B17 in this work.

B18: anti-IL-6 Fab, heavy chain Y103D (Fab, V domains shown)
VH: EVQLVESGGGLVQPGGSLRLSCAASGFTFSPFAMSWVRQAPGKGLEWVAKISPGGSWTYYSDTVTGRFTFSLDTSKSTAYLQMNSLRAEDTAVYYCARQLWGDYALDIWGQGTLVTVSS
VL: DIQLTQSPSSLSASVGDRVTITCSASISVSYMYWYQQKPGKAPKLLIYDMSNLASGVPSRFSGSGSGTDFTLTISSLQPEDFATYYCMQWSGYPYTFGQGTKVEIK
notes: as for B1
A koff [1] of 0.00503 s⁻¹ was found for B18 in this work.
